Changes are numbered by the printed parent chain. Each block holds one binder with its values, some of them ahead of it.
Key:
[1] = molecular target: T1, murine PDGFRa on NIH3T3 cells (murine, UniProt P26618 25-1089); assay: FACS on NIH3T3 cells, goat anti-human IgG Cy5
T1 construct: whole, on cells; also called mouse PDGFR-alpha
Procedure: To set up animal xenograft studies, mouse cross-reactivity was determined using FACS analysis performed with NIH3T3 cells, a murine fibroblast line which expresses endogenous PDGFRa. […] Cells were rinsed and analyzed by FACS for the presence of Cy5.

[2] = molecular target: PDGFR-alpha on human osteosarcoma MG-63 cells (human, UniProt P16234 24-1089); assay: cell-based or functional assay
[3] = molecular target: T2, PDGFR-alpha on MG-63 cells (human, UniProt P16234 24-1089); assay: cell-based or functional assay
[4] = molecular target: T2, PDGFR-alpha on MG-63 cells; assay: cell-based or functional assay; remark: listed apart in the source

T1 sequence (P26618 25-1089): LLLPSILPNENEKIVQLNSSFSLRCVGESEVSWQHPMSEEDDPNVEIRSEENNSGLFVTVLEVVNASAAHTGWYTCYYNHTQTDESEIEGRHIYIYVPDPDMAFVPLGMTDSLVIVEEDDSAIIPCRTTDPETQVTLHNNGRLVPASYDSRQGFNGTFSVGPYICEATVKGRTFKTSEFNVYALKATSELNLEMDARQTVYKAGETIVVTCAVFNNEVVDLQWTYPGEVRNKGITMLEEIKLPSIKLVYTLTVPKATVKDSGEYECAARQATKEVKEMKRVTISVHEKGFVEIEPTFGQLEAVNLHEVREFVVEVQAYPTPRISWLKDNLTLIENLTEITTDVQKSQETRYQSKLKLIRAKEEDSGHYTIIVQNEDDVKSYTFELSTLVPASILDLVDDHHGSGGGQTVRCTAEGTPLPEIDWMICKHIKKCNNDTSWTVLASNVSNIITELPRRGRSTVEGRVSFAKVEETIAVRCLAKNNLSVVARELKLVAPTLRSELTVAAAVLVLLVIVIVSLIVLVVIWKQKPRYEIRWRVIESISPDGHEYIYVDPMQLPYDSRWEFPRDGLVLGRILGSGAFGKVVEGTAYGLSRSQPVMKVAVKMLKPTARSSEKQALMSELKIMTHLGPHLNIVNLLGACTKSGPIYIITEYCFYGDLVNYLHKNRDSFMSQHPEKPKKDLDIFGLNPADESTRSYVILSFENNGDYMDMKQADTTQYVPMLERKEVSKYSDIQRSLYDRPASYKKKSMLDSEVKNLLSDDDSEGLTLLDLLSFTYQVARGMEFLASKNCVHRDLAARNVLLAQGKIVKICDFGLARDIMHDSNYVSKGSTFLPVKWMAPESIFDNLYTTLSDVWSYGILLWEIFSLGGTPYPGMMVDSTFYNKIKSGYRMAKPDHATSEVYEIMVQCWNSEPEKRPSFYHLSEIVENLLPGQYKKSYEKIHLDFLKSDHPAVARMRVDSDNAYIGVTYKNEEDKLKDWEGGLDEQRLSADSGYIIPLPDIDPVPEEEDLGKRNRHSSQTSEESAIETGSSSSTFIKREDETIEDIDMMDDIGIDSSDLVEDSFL
Sequence of PDGFR-alpha on human osteosarcoma MG-63 cells (P16234 24-1089): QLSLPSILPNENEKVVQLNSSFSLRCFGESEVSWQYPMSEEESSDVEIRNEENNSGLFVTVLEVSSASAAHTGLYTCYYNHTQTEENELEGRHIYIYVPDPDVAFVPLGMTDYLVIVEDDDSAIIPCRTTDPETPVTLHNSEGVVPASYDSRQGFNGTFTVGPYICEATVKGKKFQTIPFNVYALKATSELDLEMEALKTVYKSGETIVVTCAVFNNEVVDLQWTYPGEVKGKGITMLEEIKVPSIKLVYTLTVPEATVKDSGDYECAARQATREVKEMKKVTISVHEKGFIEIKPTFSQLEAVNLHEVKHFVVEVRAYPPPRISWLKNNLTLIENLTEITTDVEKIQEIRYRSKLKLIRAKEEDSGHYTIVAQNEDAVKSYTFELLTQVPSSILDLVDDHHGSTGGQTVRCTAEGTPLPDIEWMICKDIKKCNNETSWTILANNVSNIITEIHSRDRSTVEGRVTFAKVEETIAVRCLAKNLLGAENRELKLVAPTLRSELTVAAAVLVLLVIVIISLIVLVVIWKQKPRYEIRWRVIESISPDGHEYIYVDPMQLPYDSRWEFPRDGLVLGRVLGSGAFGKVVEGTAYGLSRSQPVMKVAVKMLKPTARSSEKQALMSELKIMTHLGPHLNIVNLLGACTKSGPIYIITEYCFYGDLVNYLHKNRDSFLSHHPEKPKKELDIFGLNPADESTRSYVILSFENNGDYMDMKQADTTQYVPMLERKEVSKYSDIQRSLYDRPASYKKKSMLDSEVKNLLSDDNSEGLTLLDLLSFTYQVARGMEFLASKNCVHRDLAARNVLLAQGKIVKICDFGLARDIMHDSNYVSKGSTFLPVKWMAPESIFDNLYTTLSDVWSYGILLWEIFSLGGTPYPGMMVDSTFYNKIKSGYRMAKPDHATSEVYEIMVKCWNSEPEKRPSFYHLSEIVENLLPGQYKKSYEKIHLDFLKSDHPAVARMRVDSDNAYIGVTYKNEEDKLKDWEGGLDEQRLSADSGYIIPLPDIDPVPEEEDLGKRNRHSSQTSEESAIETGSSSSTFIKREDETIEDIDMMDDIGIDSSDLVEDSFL
T2 sequence (P16234 24-1089): as above

B1: 2.796.2 (antibody, V domains shown)
VH: QVQLVESGGGLVKPGGSLRLSCAASGFTFSDYYMNWIRQAPGKGLEWVSYISSSGSIIYYADSVKGRFTISRDNAKNSLYLQMNSLRAEDTAVYYCARDGHIAARGMDVWGQGTTVTVSS
VL: DIQMTQSPSSLSASVGDRVTITCRASQSFSRYINWYQQKPGKAPKLLIYAASSLQGGVPSRFSGSGSGTDFTLTISSLQPEDFATYYCQQTYSNPPITFGQGTRLEIK
binding result [1]: no binding (tested: 10 ug/ml)
Proliferation Assay: IC50 ng/ml (1-6-06) [2]: 498 ng/mL
Proliferation Assay: IC50 ng/ml (1-23-06) [2]: 757 ng/mL
pTyr Assay: % Inhibition @ 2 µg/ml [2]: 99%

B2: 2.1853.3 (antibody, V domains shown)
VH: B1 VH with H101R, A103V
VL: B1 VL with S12C, Q27R, F29I, S30T, I33L, A50G, G56S, T91S, N94T
PROLIFERATION ASSAY: MG-63 CELLS, IC50 [3]: 18 nM
Average pTyr Inhibition [4]: > 100%

B3: 2.796.2 (antibody, V domains shown)
VH: B1 VH
VL: B1 VL
PROLIFERATION ASSAY: MG-63 CELLS, IC50 [3]: 5 nM
Average pTyr Inhibition [4]: 93%

B5: 2.737.1.4 (antibody, V domains shown)
VH: B1 VH with S30R, N35S, S49A, Y50F, Y80F
VL: B1 VL with F29I, S30N, R31K, G56S, S63N, L73F, S76N, S77T, N94T
PROLIFERATION ASSAY: MG-63 CELLS, IC50 [3]: 3.72 nM
Average pTyr Inhibition [4]: 93%

B6: 2.1623.2 (antibody, V domains shown)
VH: B1 VH with Y50F, I57T
VL: B1 VL with T74A, N94T
PROLIFERATION ASSAY: MG-63 CELLS, IC50 [3]: 6.5 nM
Average pTyr Inhibition [4]: > 100%

B8: 2.351.3 (antibody, V domains shown)
VH: QVQLVQSGAEVKKPGASVKVSCKASGYTFIGYYLHWVRQAPGQGLEWMGSINPNSGGTNYAQKFQGRVTMIRDTSINTAYMELSRLRSDDTAVYYCARDKRITMVRGVHYLYYGWDVWGQGTTVTVSS
VL: DIQMTQSPSSLSASVGDRVTITCRASQVISNYLAWYQQKPGKVPQLLIYAASTLQSGVPSRFSGSGSGTDFTLTISSLQPEDVATYYCQNYKSAPWTFGQGTKVEIK
PROLIFERATION ASSAY: MG-63 CELLS, IC50 [3]: 4.3 nM
Average pTyr Inhibition [4]: 97%

B12: 2.414.2 (antibody, V domains shown)
VH: QLQLQESGPGLVKPSETLSLTCTVSGGSISSSNYYWGWIRQPPGKGLEWIGTIYYTGSTYYNPSLKSRVTISVDTSKNQFSLKLSSVTAADTAVYYCARHHWVFDYWGQGTLVTVSS
VL: EIVLTQSPDFLSVTPKEKVTITCRASQIIGSSLHWYQQKPDQSPKLLIKYASQSFSGVPSRFSGSGSGTDFTLTLNSLEAEDAATYYCHQSTILPWTFGQGTKVEIK
binding result [1]: no binding (tested: 10 ug/ml)
Proliferation Assay: IC50 ng/ml (1-6-06) [2]: 658 ng/mL
Proliferation Assay: IC50 ng/ml (1-23-06) [2]: 349 ng/mL
Proliferation Assay: IC50 (1-6-06) [2]: 4.4 nM
Proliferation Assay: IC50 (1-23-06) [2]: 2.3 nM
pTyr Assay: % Inhibition @ 2 µg/ml [2]: 99%

B13: 2.414.2 (antibody, V domains shown)
VH: B12 VH
VL: B12 VL
PROLIFERATION ASSAY: MG-63 CELLS, IC50 [3]: 2.3 nM
Average pTyr Inhibition [4]: 98%

B14: 2.542.2 (antibody, V domains shown)
VH: B12 VH with N33T, T56S, S85N
VL: B12 VL with K45N, F55V
PROLIFERATION ASSAY: MG-63 CELLS, IC50 [3]: 4.35 nM
Average pTyr Inhibition [4]: 91%

The next lines start with the values.

PROLIFERATION ASSAY: MG-63 CELLS, IC50 [3]: 3.3 nM
Average pTyr Inhibition [4]: > 100%
B4: 2.2071.1.3 (antibody, V domains shown)
VH: B1 VH with H101R, A103V
VL: B1 VL with I21L, Q27H, F29I, S30N, G56S, S65N, T91S, N94T, K108T

binding result [1]: no binding (tested: 10 ug/ml)
Proliferation Assay: IC50 ng/ml (1-6-06) [2]: 1280 ng/mL
Proliferation Assay: IC50 ng/ml (1-23-06) [2]: 492 ng/mL
Proliferation Assay: IC50 (1-6-06) [2]: 8.5 nM
Proliferation Assay: IC50 (1-23-06) [2]: 3.3 nM
pTyr Assay: % Inhibition @ 2 µg/ml [2]: 99%
B7: 2.2071.1.3 (antibody, V domains shown)
VH: B1 VH with H101R, A103V
VL: B1 VL with I21L, Q27H, F29I, S30N, G56S, S65N, T91S, N94T, K108T

binding result [1]: no binding (tested: 10 ug/ml)
Proliferation Assay: IC50 ng/ml (1-6-06) [2]: 386 ng/mL
Proliferation Assay: IC50 ng/ml (1-23-06) [2]: 423 ng/mL
Proliferation Assay: IC50 (1-6-06) [2]: 2.57 nM
Proliferation Assay: IC50 (1-23-06) [2]: 2.81 nM
pTyr Assay: % Inhibition @ 2 µg/ml [2]: 99%
B9: 5.16.1 (antibody, V domains shown)
VH: QVQLVQSGAEVKKPGASVKVSCKASGYTFTSYYMYWVRQAPGQGLEWMGIINPSGGSTSYAQKFQGRVTMTRDTSTSTVYMELSSLRSEDTAVYYCARGSSPFFDYWGQGTLVTVSS
VL: DIQMTQSPSSLSASVGDRVTITCRASQIISHFLNWYQQKPGKAPKLLVYVASSLQSGVPSRFSGSGSGTDFTLTISSLQPEDFATYYCQQSFSIPLTFGGGTKVEIK

binding result [1]: no binding (tested: 10 ug/ml)
Proliferation Assay: IC50 ng/ml (1-6-06) [2]: 404 ng/mL
Proliferation Assay: IC50 ng/ml (1-23-06) [2]: 471 ng/mL
Proliferation Assay: IC50 (1-6-06) [2]: 2.7 nM
Proliferation Assay: IC50 (1-23-06) [2]: 3.1 nM
pTyr Assay: % Inhibition @ 2 µg/ml [2]: 100%
B10: 3.341.2 (antibody, V domains shown)
VH: EVQLVESGGGLVQPGGSLRLSCAASGFTFSSYSMNWVRQAPGKGLEWVSFISGSSSTMYYADSVKGRFTISRDNAKNSLYLQMNSLRDEDTAVYYCARLRYFDWSYAFDIWGQGTMVTVSS
VL: DIQMTQSPSSVSTSVGDRVTITCRASQGIRSWLAWYQQRPGKAPKLLIYAASSLQNGVPSRFSGSGSGTDFTLTISSLQPEDFATYFCQQATSFPFTFGPGTKVDIN
notes: Only variable regions

PROLIFERATION ASSAY: MG-63 CELLS, IC50 [3]: 3.1 nM
Average pTyr Inhibition [4]: > 100%
B11: 3.341.2 (antibody, V domains shown)
VH: B10 VH
VL: B10 VL

binding result [1]: no binding (tested: 10 ug/ml)
Proliferation Assay: IC50 ng/ml (1-6-06) [2]: 1040 ng/mL
Proliferation Assay: IC50 ng/ml (1-23-06) [2]: 652 ng/mL
pTyr Assay: % Inhibition @ 2 µg/ml [2]: 99%
B15: 2.542.2 (antibody, V domains shown)
VH: B12 VH with N33T, T56S, S85N
VL: B12 VL with K45N, F55V

Reference: patent publication US20090324601A1 (published 2009)
